The record followed here is US20250313629A1 (Hoffmann-La Roche, published 2025).

Positions count from the first letter of the chain named.

In test [1] the target is T1, Lag3 expressed on cells (recombinant CHO cells expressing Lag3; Lag3+ NFAT Jurkat effector cells) (human, UniProt P18627 29-525).
T1 sequence: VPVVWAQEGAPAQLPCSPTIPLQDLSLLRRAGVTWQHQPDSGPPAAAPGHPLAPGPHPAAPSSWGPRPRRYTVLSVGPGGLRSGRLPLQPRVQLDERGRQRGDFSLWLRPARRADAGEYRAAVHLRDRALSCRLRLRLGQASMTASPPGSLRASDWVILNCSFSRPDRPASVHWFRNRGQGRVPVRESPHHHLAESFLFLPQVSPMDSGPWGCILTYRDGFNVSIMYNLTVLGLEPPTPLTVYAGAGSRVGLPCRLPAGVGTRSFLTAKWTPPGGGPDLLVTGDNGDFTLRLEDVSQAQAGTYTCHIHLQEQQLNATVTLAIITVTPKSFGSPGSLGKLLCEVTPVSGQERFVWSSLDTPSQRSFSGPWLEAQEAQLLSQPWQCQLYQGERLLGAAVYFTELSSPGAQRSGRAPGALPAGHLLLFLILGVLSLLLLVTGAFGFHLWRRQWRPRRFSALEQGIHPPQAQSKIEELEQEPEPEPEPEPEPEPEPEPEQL
Nature of the test: cell-based or functional assay.

For test [2], the target named is T2, cynomolgus Lag3 on cells (HEK293F cells transiently transfected with cyno-LAG-3); activated cynomolgus PBMC/T … (cynomolgus).
T2 construct: whole, on cells
Nature of the test: flow cytometry on CD3/CD28-activated cynomolgus PBMC, antibody at 10 ug/ml. As for the experimental part:
Thus, cynomolgus peripheral blood mononuclear cells (PBMC) were prepared from fresh cynomolgus blood and were then activated by CD3/CD28 pre-treatment (1 μg/ml) for 2-3 days. […] After staining, cells were washed two times with PBS/2% FCS and analyzed on a FACS Fortessa (BD).

In a further test the target is T3, biotinylated-Lag3 (UniProt P18627 23-450, limits assumed, biotinylated (site not stated)).
T3 construct: also called LAG-3 (A375 MHC-II ELISA)
T3 sequence (looked up): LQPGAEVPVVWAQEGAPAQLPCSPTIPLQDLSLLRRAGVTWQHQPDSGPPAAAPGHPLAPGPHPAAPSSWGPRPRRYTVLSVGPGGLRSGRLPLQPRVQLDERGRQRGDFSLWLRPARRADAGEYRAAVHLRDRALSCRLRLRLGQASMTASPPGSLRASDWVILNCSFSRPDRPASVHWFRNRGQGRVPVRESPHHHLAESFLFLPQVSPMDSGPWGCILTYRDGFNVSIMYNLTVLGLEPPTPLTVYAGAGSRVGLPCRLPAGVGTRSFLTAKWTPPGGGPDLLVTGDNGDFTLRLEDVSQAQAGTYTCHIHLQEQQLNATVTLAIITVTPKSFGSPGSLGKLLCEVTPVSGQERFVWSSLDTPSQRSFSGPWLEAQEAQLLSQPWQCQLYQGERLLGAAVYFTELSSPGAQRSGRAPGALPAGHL
Nature of the test: competition cell ELISA: antibody pre-incubated with biotinylated Lag3, binding to MHC-II on A375 cells. The method, then:
25 μl/well of A375 cells (10000 cells/well) were seeded into tissue culture treated 384-well plates (Corning, 3701) and incubated at 37° C. overnight. […] After washing (1×90 μl in PBST) cells were fixed by addition of 30 μl/well glutaraldehyde to a final concentration of 0.05% (Sigma Cat.No: G5882), 10 min at room temperature. After washing (3×90 μl/well with PBST-buffer) 25 μl/well Poly-HRP40-Streptavidin (Fitzgerald, 65R-S104PHRPx) was added in a 1:2000 or 1:8000 dilution and incubated at RT for 1 h. After washing (3×90 μl/well with PBST-buffer) 25 μl/well TMB substrate (Roche, 11835033001) was added and incubated for 2 to 10 min. Measurement took place on a Tecan Safire 2 instrument at 370/492 nm.
For orientation: An ELISA detects its analyte on a solid surface through an enzyme-linked reagent.

B1: aLAG3(0411) (antibody, V domains shown)
VH: EVHLLESGGGLVQPGGSLRLSCAASGFIVDDYTMNWVRQAPGKGLEWVSVISWDGGATYYADSVKGRFTISRDDFKNTLYLQMNSLRAEDTAVYYCAKGLTDDTLYGSDYWGQGTLVTVSS
VL: DIQMTQSPSSLSASVGDRVTITCRASQSIVSYLNWYQQKPGKAPKLLIYASSSLQSGVPSRFSGSGSGTDFTLTISSLQPEDFATYYCQQTYSTPLTFGGGTKVEIK
notes: also called aLAG3 (411)
Consider B1, for which, in test [1], the “EC50 [nM] in Jurkat LAG3 + SED + Raji, 1st assay” value (shortened to “EC50 [nM] … 1st assay”) stood at 1.1 nM and the “EC50 [nM] in Jurkat LAG3 + SED + Raji, 2nd assay” value (“EC50 [nM] … 2nd assay” for short) was determined as 1 nM. In addition, the “percentage of Lag3 positive cells” value in test [2] was found to be 46.6%.

B2: aLAG3(0416) (antibody, V domains shown)
VH: EVQLVESGGGLVQPGGSLRLACAASGFTFSDYAMSWVRQAPGKGLEWVSGIDNSGYYTYYTDSVKGRFTISRDDVKNTLYLQMNSLRAEDTAVYLCTKTHSGLIVNDAFDIWGQGTMVTVSS
VL: B1 VL with M4L, V30S, A50D, S51A, Q55E, F71A, T91S
notes: also called aLAG3 (416)
B2: in test [1], the “EC50 [nM] … 1st assay” value stood at 3.1 nM; the “EC50 [nM] … 2nd assay” value amounted to 2.5 nM; the “EC50 [nM] in Jurkat LAG3 + SED + Raji, 3rd assay” value was 3.5 nM. In addition, the “percentage of Lag3 positive cells” value in test [2] was 38.9%.

B3: aLAG3(0417) (antibody, V domains shown)
VH: B2 VH
VL: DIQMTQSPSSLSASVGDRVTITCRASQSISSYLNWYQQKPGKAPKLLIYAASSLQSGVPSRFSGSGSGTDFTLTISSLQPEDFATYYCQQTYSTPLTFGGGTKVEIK
notes: also called aLAG3 (417)
Regarding B3, the “EC50 [nM] … 1st assay” value in test [1] is 1 nM. Also, the “percentage of Lag3 positive cells” value in test [2] stood at 35.3%.

B4: aLAG3(0414) (antibody, V domains shown)
VH: B1 VH with H3Q, V29F, S49A, A57G, A61T, D103T
VL: B1 VL with V30S, S51A, S53T, T94S
notes: also called aLAG3 (414)
As to B4, in test [1], the “EC50 [nM] … 1st assay” value came to 1.1 nM; the “EC50 [nM] … 2nd assay” value was 1 nM; the “EC50 [nM] in Jurkat LAG3 + SED + Raji, 3rd assay” value amounted to 1.8 nM. The “percentage of Lag3 positive cells” value in test [2] was found to be 43%.

B5: humanized BAP050 (LAG525) (antibody, V domains shown)
VH: QIQLVQSGPELKKPGETVKISCKASGFTLTNYGMNWVRQTPGKGLKWMGWINTDTGEPTYADDFKGRFAFSLETSASTASLQINNLKNADTATYFCARNPPYYYGTNNAEAMDYWGQGTTVTVSS
VL: DIQMTQTTSSLSASLGDRVTISCSSSQDISNYLMWYQQKPDGTVKVLIYYTSTLHLGVPSRFSGSGSGTDYSLTISNLELEDIATYYCQQYYNLPWTFGQGTKVEIK
One may read the IC50 as the concentration needed to halve the response being measured. A high value points to a need for much substance. On to B5, for which the “EC50 [nM] … 2nd assay” value in test [1] came to 22.6 nM. In addition, the “percentage of Lag3 positive cells” value in test [2] came to 50.7%. In the test with biotinylated-Lag3, this molecule showed an IC50 of 1 nM.

B6: MDX25F7 (25F7) (antibody, V domains shown)
VH: QVQLQQWGAGLLKPSETLSLTCAVYGGSFSDYYWNWIRQPPGKGLEWIGEINHNGNTNSNPSLKSRVTLSLDTSKNQFSLKLRSVTAADTAVYYCAFGYSDYEYNWFDPWGQGTLVTVSS
VL: EIVLTQSPATLSLSPGERATLSCRASQSISSYLAWYQQKPGQAPRLLIYDASNRATGIPARFSGSGSGTDFTLTISSLEPEDFAVYYCQQRSNWPLTFGQGTNLEIK
notes: also called Medarex 25F7
For B6, in test [1], the “EC50 [nM] … 2nd assay” value was found to be 8.6 nM. The “percentage of Lag3 positive cells” value in test [2] was determined as 22.1%.

B7: BMS-986016 (antibody, V domains shown)
VH: B6 VH with N54R, N56S
VL: B6 VL
On to B7, for which, in test [2], the “percentage of Lag3 positive cells” value turned out to be 18.6%.

B8: aLAG3(0403) (antibody, V domains shown)
VH: EVQLLESGGGLVQPGGSLRLSCAASGFTFDDYTMHWVRQAPGKGLEWVSLVSWDGGGTYYTNSVKGRFTISRDNSKNTLYLQMNSLRAEDTAVYFCAKAITDTSLYGYDYWGQGILVTVSS
VL: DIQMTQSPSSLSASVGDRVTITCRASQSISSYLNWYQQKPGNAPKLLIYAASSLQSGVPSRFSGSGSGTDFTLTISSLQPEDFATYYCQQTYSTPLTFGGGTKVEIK
notes: also called anti-Lag3 aLAG3 (0403)
Take B8: the “percentage of Lag3 positive cells” value in test [2] is 44.2%.
